System: MS2 coat protein
Experiment: apparent KD of MS2 coat protein; designed switch direction (-1 OFF switch, 1 ON switch): -1; higher = weaker reporter binding
Outline: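 The reported apparent KD is a per-design median over clusters, from curve fits of normalised cluster fluorescence. Protein titrations used SNAP-549-labelled MS2 coat protein, doubled from 0.7 or 1.5 nM to 3 µM, in Tris-HCl pH 7.5 buffer with KCl, MgCl2, BSA, DTT, tRNA and Tween-20, with no input, 200 uM small-molecule ligand, or an oligonucleotide input. The RNA switches were transcribed on Illumina chips by stalled E. coli RNA polymerase.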

[1] = input ligand: microRNA oligo, concentration not stated
[2] = Eterna round: R95, input ligand: microRNA oligo, concentration not stated
[3] = Eterna round: R95, input ligand: FMN 200 uM
[4] = Eterna round: R95, input ligand: none

Sequence	apparent KD of MS2 coat protein (input ligand: FMN 200 uM) [nM]	apparent KD of MS2 coat protein [1] [nM]	apparent KD of MS2 coat protein (input ligand: none) [nM]	apparent KD of MS2 coat protein [2] [nM]	apparent KD of MS2 coat protein [3] [nM]	apparent KD of MS2 coat protein [4] [nM]
GUCAGCUCGUGAGGAUAUACAUGAGGAUCACCCAUGUGAUCAAUAGCAGCUUCGGCUGCAUUAAUGUAGAAGGUACGAGCUGAC [ENG2/5-C1] (Eterna round: R96, puzzle: Exclusion NG 2)	65.2	111	700			
AAAUAGCAUGAGGAUAUUGAACUGUAUUCAGUACGAGAAGGCAUGACAUGAGGAUCACCCAUGUUUUGUUGGGA [EX6 #5] (Eterna round: R97, puzzle: Exclusion 6)	126		27			
AACGUACGUCGAGGAUAUGACGAGAAAUAUGAGUCAGAAGGCGACUGGUACAUGAGGAUCACCCAUGUUGCGACCAUGUGGCUU [Eternabot solution 23] (Eterna round: R96, puzzle: Exclusion NG 1)	53.7	13.4	17.9			
GGUAGAGUGGUAGGAUAUCCGUCUGUUUCAGUCGGAGAAGGACCACAGUCACUGGGUCCUAAUAUGGGUGACCAUGUAUCUACC [pwkr exNG1 F6.11] (Eterna round: R96, puzzle: Exclusion NG 1)	1340	279	348			
CUACUGUGAGGAUAUGGUGAGUAGUGCCUGAGCGCUGCUCACCAGAAGGCACAUGAGGAUCACCCAUGUAUGAC [JL-ex4-2.03 denovo] (puzzle: Exclusion 4)				43.5		
UUUAGUCGUGACAUGGGUGACAUGAGGAUCACCCAUGUUACAAGCUUGUUGCUCGUCUUAUAAUUAACCCAUGUCAC [LRO Sensor-off var1-16 mod of Stov1-13-A1 by Brourd] (Eterna round: R97, puzzle: Sensor, turn-off variant 1)	13.5		17.2			
UGAUCUAGCGGAGGAUAUACAUGAGGAUCACCCAUGUAGAUAACAUGACCGUAGUCGUGUAACGUGUAGAAGGCCGCUAGAUCU [JL ENG2 3.68] (Eterna round: R96, puzzle: Exclusion NG 2)	104	17	23			
AAUAAGGGAGGAUAUACAUGAGGAUCACCCAUGUUUGUAAUUUAAUUCGGGAGUAUUAGUAGAAGGCCCAAUAA [lam1] (Eterna round: R97, puzzle: Exclusion 3)	278		59.5			
GCAGAUGAAGUGAGGAUAUGCUCUACCUCGGUAGAGCAGAAGGCACAUGAGGAUCACCCAUGUGAUUCAUCUGC [Omei Ex4B B6] (Eterna round: R97, puzzle: Brourd's mod of Exclusion 4)	35.4		17			
AAAAUGGCAGGAUAUACAUGAGGAUCACCCAUGUUCGUCUUUACAUGUAAAAUGCUCUGUAGAAGGGCCUCGAA [Quised] (Eterna round: R97, puzzle: Exclusion 3)	47.1		21.9			
GAUCCUCGGGUUAGGAUAUCGAGGAUGUACGUCAGCGAGAAGGAACAUGAGGAUCACCCAUGUUGCUUAGCAAG [BmEX4 A.18] (Eterna round: R97, puzzle: Brourd's mod of Exclusion 4)	21.1		19.5			
AGAAAAGACCUAGGAUAUACCCAGUGGGUAGAGGGUCAUAAUAAUAAAACAUGAGGAUCACCCAUGUAGAAGGAGGGAAAGAAG [Biriusdibe] (Eterna round: R96, puzzle: Exclusion NG 2)	58.1	47.1	63.2			
AUAAAUCAUGUAGGAUAUGUGUGGCGAAGCUAUACAGAAGGACAUGAGGAUCACCCAUGUUCUUCCGUCUGCGUACAGACGGAA [11th something] (Eterna round: R96, puzzle: Exclusion NG 1)	228	19.1	29			
CACCUGAAGACAGGAUAUCAUACAUGAGGAUCACCCAUGUAAUAAAUGAGAAUUUCGAAUGUAAUUGAGAAGGGUCGAUAAGGC [Ostricism 91 - Jieux - Exclusion NG 2] (Eterna round: R96, puzzle: Exclusion NG 2)	78.9	30.6	30.6			
AAUGGUAAAGUCAGGAUAUACGUAAAUCGUUCUAGGUAGAAGGGACAUGAGGAUCACCCAUGUAUGAUAGUAAA [Ex4 #32] (Eterna round: R97, puzzle: Brourd's mod of Exclusion 4)	31.9		35.4			
GCAAGCUUGUCAAGAUCCCACAUGAGGAUCACCCAUGUGCAUCGUCUGAGCCCAUAGCUAGUCAUCUGCGGGUGCGU [Eternabot (Original) Solution 15] (Eterna round: R97, puzzle: Sensor, turn-off variant 1)	40.3		44.7			
UAUUAAUUAAUUAAUUAAUACAUGAGGAUCACCCAUGUAAUUUAAGAUCCUUAUACAAGCUUUGAUCUCGUAAUUAA [Stov1/4-A2] (Eterna round: R97, puzzle: Sensor, turn-off variant 1)	861		696			

Sequence	apparent KD of MS2 coat protein (input ligand: FMN 200 uM) [nM]	apparent KD of MS2 coat protein [1] [nM]	apparent KD of MS2 coat protein (input ligand: none) [nM]	apparent KD of MS2 coat protein [2] [nM]	apparent KD of MS2 coat protein [3] [nM]	apparent KD of MS2 coat protein [4] [nM]
UAAAGUAUAUAGGAUAUCUAGCUGGAUACAGCUAGAGAAGGAUGUACAUGAGGAUCACCCAUGUAGAUCUCAAA [Ex6/15-A1] (Eterna round: R97, puzzle: Exclusion 6)	17.4		14.8			
GGGCCCGGAGGAUAUACAAUGGGUUUGGGAAACCGGGCCCUACAUGAGGAUCACCCAUGUAGAAGGCCGGGCCC [-41, -38.9 kcal A 24%, 5b,0] (Eterna round: R97, puzzle: Exclusion 2)	39.9		34.2			
CACCGUUACAGAGGAUAUGACACAUGAGGAUCACCCAUGUAAUAAAUGAGAAUUUCGAAUGUAACUCAGAAGGCUGGAAUCGGC [Ostricism 77 - Jieux - Exclusion NG 2] (Eterna round: R96, puzzle: Exclusion NG 2)		22.1				
ACAAGCUUAAAAGGUGAUAACAUGAGGAUCACCCAUGUUCGUCUUAUAAAGAUCCUAUGUCGAAAGACAUAGGAUCA [Sensor 3, v1 - 68] (puzzle: Sensor v3, turn-off variant 1)				39.4	18.8	20.9
GUGUAGAUAGGAUAUGCAUGAGUCUAGCGAAGCUAGGCUCUACAUGAGGAUCACCCAUGUAGAAGGGUCUACAC [Dot plot directed A v13] (puzzle: Exclusion 2)				18.6		
GACUGCCGAGGAUAUACAUGAGGAUCACCCAUGUGCUUCAGUAUCGAAAGAUGCAUGGGUAGAAGGCGGUAGUC [LRO-Excl3-10] (Eterna round: R96, puzzle: Exclusion 3)	912	627	1410			
AGAAAUGCCCAUGGCCACAAGCUUUCUGCUUGUCUUACUACAUGAGGAUCACCCAUGUAACAUGGGCUCCUGAUAAU [Enzainge] (puzzle: Sensor v3, turn-off variant 2)				10.4	13.2	11.4
GAACUAAAGCAAAGCUUUAGUCGUACAUGAGGAUCACCCAUGUAGGAUAUGGUAGGCAAAGCAUACCAGAAGGACAGAGUGAUC [Mat - Exclusion NG 3 - Mod of JL - D63] (Eterna round: R96, puzzle: Exclusion NG 3)	211	134	371			
UAUAACAAGCCAGAUCCUAACAUGAGGAUCACCCAUGUGCUCGUCUGAUUUUGUACUAUCAUGAGAGUGAUAGUACU [Level Boss var2-03] (puzzle: Sensor v3, turn-off variant 1)				488	181	192
GAUAGAGAGCAGGAUAUCUUGGAUAAGUAUUGUAGAGAAGGGCUCACAUGAGGAUCACCCAUGUGGUCCUAGAU [JL Dibiri mod 10] (puzzle: Exclusion 6)				14.8		
GAAAACGCAGAGGAUAUUUCAGAUCAAAGCUGCAAAGAAGGCUGCACAUGAGGAUCACCCAUGUGGUCUCAAAA [Mod of Quesina 3 - Jieux - Exclusion 6] (Eterna round: R97, puzzle: Exclusion 6)	422		33.6			
CAUAUGUUAGGAUAUGCACAGAUCUCCGAAAGGAGAUCUGUGCAGAAGGAACAUGAGGAUCACCCAUGUUGAUG [Mod of Brourd 17 - Jieux - Exclusion 4] (Eterna round: R97, puzzle: Exclusion 4)	176		34.2			
CAAAAGGUAGGAUAUACGAAAAAAAAGGGUAGAAAAAAAACACAUGAGGAUCACCCAUGUAGAAGGACCAAAAA [salish99_ex2_r3_055] (puzzle: Exclusion 2)				22	67.6	24.5
UUGGAUGUUGAGGAUAUGCUUUUUUUUAUUAUAGCAGAAGGCGAUACAUGAGGAUCACCCAUGUUCAUGGCUUU [JR_E6_Sub099] (puzzle: Exclusion 6)				13.7	14.5	14.6
UUGUUGUAUGUAGGAUAUGCAUAUUAUUAUUAUGCAGAAGGACAUGAGGAUCACCCAUGUGUAUUAUUAUUAUAUAUUAUAUAU [Title] (Eterna round: R96, puzzle: Exclusion NG 1)		20				
GGUACUCAAAGAGUACCAAUACGAACAUGAGGAUCACCCAUGUAGGAUAUGCUACUCAAAGAGUAGCAGAAGGACAUGUGCCUU [Far Half Aptamer v5] (Eterna round: R96, puzzle: Exclusion NG 3)	254	25.3	29.5			

Source: the supplement of paper PMC9170038
